Data on twelve molecules can be found in US20250042994A1 (HAINAN SIMCERE ZAIMING PHARMACEUTICAL, published 2025).

In assay [1] the target is T1, human CD19 exon1-3-His tag protein (human, UniProt P15391 20-186, limits assumed).
T1 construct: membrane-distal part of the extracellular region, made in HEK293E cells; not shown: His tag
T1 sequence (looked up): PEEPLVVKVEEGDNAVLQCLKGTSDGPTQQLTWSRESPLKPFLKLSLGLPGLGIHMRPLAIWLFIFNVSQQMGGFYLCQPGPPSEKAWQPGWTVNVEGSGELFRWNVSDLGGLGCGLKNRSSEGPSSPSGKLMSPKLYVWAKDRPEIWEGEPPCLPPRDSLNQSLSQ
As to the kind of experiment: ELISA on coated human CD19 exon 1-3-His. As to the method:
Human CD19-his protein (purchased from ACROBiosystems, catalog number: CD9-H52H2) was diluted with PBS to a final concentration of 4 μg/mL, and then added to a 96-well ELISA plate at 100 μl/well. The plate was sealed with a plastic film and incubated overnight at 4° C., the plate was washed 2 times with PBS the next day, and then a blocking solution [PBS+2% (w/w) BSA] was added for blocking at room temperature for 2 h. The blocking solution was poured off, and 100 nM gradiently diluted CD19 chimeric antibody or control antibody was added at 50 μl/well. After incubation at 37° C. for 2 h, the plate was washed 3 times with PBS. […] TMB substrate was added at 50 μl/well, and incubated at room temperature for 10 min, and then a stop solution (1.0 N HCl) was added at 50 μl/well. The OD450 nm values were read by an ELISA microplate reader (Multimode Plate Reader, EnSight, purchased from Perkin Elmer).
CD19 protein contains 4 exons in the extracellular region, in which exons 1-3 are located at the membrane-distal end and exon 4 is located at the membrane-proximal end. […] To identify the distribution of antigen binding epitopes of the chimeric antibodies, human CD19 exon 1-3-His (membrane-distal end) was used to coat at 2 μg/mL according to the ELISA method in example 5.1.
(In an ELISA, binding on a coated surface is turned into a signal by an enzyme label.)

Another assay has as its target T2, Human CD19-his protein (human, UniProt P15391 20-291).
T2 construct: bought protein; also called recombinant human CD19-His; CD19 full-length protein; not shown: His tag
T2 sequence (looked up): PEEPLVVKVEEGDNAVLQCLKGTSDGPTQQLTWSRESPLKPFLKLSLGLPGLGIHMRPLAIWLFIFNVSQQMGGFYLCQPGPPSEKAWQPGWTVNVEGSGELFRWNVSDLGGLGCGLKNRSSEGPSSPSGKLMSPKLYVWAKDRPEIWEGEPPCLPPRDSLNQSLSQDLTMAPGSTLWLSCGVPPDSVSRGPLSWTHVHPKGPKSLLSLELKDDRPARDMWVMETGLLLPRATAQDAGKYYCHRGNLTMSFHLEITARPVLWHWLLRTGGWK
The experiment in a line: SPR Biacore, Ab captured on Protein A, CD19-His analyte. As to the method: A sample buffer and a running buffer were HBS-EP+ (10 mM HEPES, 150 mM NaCl, 3 mM EDTA and 0.05% surfactant P20) (GE Healthcare; BR-1006-69). The flow-through cell was set to 25° C. The sample block was set to 16° C. Both were pretreated with the running buffer. In each cycle, an antibody to be detected was first captured with a Protein A chip, and then a single concentration of CD19 antigen protein was injected. The binding and dissociation processes of the antibody and the antigen protein were recorded, and finally Glycine pH 1.5 (GE Healthcare; BR-1003-54) was used to complete chip regeneration. The binding was measured by injecting different concentrations of recombinant human CD19-His proteins in a solution for 240 s with a flow rate of 30 μl/min. The concentration started from 200 nM (see the detailed results for the actual concentration in the test) and was diluted at 1:1, making a total of 5 concentrations. The dissociation phase was monitored for up to 600 s and was triggered by switching from sample solution to running buffer. The surface was regenerated by washing with a 10 mM glycine solution (pH 1.5) for 30 s at a flow rate of 30 μl/min. Bulk refractive index difference was corrected by subtracting the response obtained from the goat anti-human Fc surface. Blank injection was also subtracted (=double reference). For calculation of apparent KD and other kinetic parameters, Langmuir 1:1 model was used.

B1: F2.15.26 (antibody, human IgG1, V domains shown)
VH: QVQLKESGPGLVAPSQSLSITCTVSGFSLTDYGVSWIRQSPGKGLEWLGVIWGSGDTYYNSVLESRLSINKDNSKNQVFLKMNSLQTDDAAMYFCAKHSYYGGSFAMDYWGQGTSVTVSS
VL: DIQMTQTTSSLSASLGDRVTISCRASQDISNYLNWYQQKPDGTVKLLIYYTSRLHSGVPSRFSGSGSGTDYSLTISNLEQEDIATYFCQQGKTLPWTFGGGTKLEIK
notes: human-murine chimeric antibody, human IgG1 constant
Usually Kd stands for a measure of binding affinity in units of concentration. Broadly, the koff is a measure of how fast the partners let go of each other. Read a low koff as slow dissociation. By kon is commonly meant a measure of how fast the partners come together. Read a high kon as fast association. As for B1, the binding result in assay [1] was “no binding (tested: 100 nM)”. In the assay with Human CD19-his protein, this molecule returned a Kd of 0.839 nM, a koff of 0.000229 s⁻¹ and an association rate constant (kon) of 273000 M⁻¹ s⁻¹.

B2: F6.12.12 (antibody, human IgG1, V domains shown)
VH: DVQLQESGPGLVKPSQSLSLTCSVTGYSITSGYYWIWIRQFPGNKLEWMGYISYDASNKYKPSLKNRISITRDTSKNQFFLKLNSVTAEDTATYFCAREDLRGYFDVWGTGTSVTVSS
VL: DIVLTQSPASLAVSLGRRATISCRASQSVSTSGFSYMHWYQQKPGQPPNLLIKYASILQSGVPARFSGSGSGTDFILNIHPVEDVDTATYYCQHSWGIPFTFGSGTKLEIK
notes: as for B1
For the molecule B2, in assay [1], the binding result was “no binding (tested: 100 nM)”. In the assay with Human CD19-his protein, this molecule came in with a Kd of 1.46 nM, a dissociation rate constant (koff) of 0.000245 s⁻¹ and a kon of 167000 M⁻¹ s⁻¹.

B3: F3.13.2 (antibody, human IgG1, V domains shown)
VH: DVQLQESGPGLMKPSQSLSLTCSVTGYSITSGYYWNWIRQFPGNKLEWMGYISYDGSNNYNPSLKNRFSITRDTSKNQFFLKLNSVTTEDTATYYCARRKLTGGPYFDYWGQGTTLTVSS
VL: DIVLTQSPASLAVTLGQRATISCRASESVSFHGFHIMHWYQQKPGQPPKLLIYAASHLVSGVPDRFSGSGSETDFTLNIHPVEEEDAAAYFCQQSVEDPWTFGGGTKLEIK
notes: as for B1
B3: the binding result in assay [1] is reported as “no binding (tested: 100 nM)”. Moreover, in the assay with Human CD19-his protein, the Kd stood at 8.13 nM, the koff was determined as 0.000526 s⁻¹ and the on-rate (kon) came out at 64700 M⁻¹ s⁻¹.

B4: F3.113.16 (antibody, human IgG1, V domains shown)
VH: QVQLQQPGAELVKPGASVKLSCKASGYTFTNYWMQWVKQRPGQGLEWIGEIDPSDSYINYNQKFKGKATLTADTSSSTAYMQLSSLTYEDSAVYYCARPVTVPWYFDVWGTGTTVTVSS
VL: EIVLTQSPTTMAASPGEKITITCSATSSISSNYLHWYQQKPGFSPKLLIYRTSNLASGVPARFSGSGSGTSYSLTIGTMEAEDVATYYCQQGSAIPRIFTFGSGTKLEIK
notes: as for B1
With B4, in assay [1], the binding result is “no binding (tested: 100 nM)”. Besides, in the assay with Human CD19-his protein, the Kd was 12.4 nM, the koff was 0.00105 s⁻¹ and the kon was 84800 M⁻¹ s⁻¹.

B5: F3.64.4 (antibody, human IgG1, V domains shown)
VH: EVQLQQSGPELVKPGASVKISCKASGYTFTDYHINWVKQSHGKSPEWIGDINPNNGGTTYNQKFKDKATLTVDKSSSTAFMELRSLTSEDSAVYYCARFITTVVAWYFDVWGTGTTVTVSS
VL: DIQMTQSPASLSVSVGETVTITCRASENIYSNLAWYQQKQGKSPQLLVYAATNLADGVPSRFSGSGSGTQYSLKINSLQSEDFGNYYCQRFWDTPRTFGGGTKLEIK
notes: as for B1
In the case of B5, the binding result in assay [1] is recorded as “no binding (tested: 100 nM)”. In the assay with Human CD19-his protein, binding was characterised by a dissociation constant (Kd) of 1.64 nM, the koff turned out to be 0.000313 s⁻¹ and the kon was 191000 M⁻¹ s⁻¹.

B6: F3.5.1 (antibody, human IgG1, V domains shown)
VH: QAQLQQSGPELVKPGASVKISCKASGYAFSGSWMNWVQQRPGKGLEWIGRIYPGDGDTYYNGKFKDKAILTADKSSSTAYMQLSSLTSEDSAVYFCAQLRYRYVMDYWGQGTSVTVSS
VL: DIVLTQSPASLAVSLGQRATISCRASESVSIHGSHLMHWYQQKPGQPPRLLIYAASNLESGVPARFSGSGSETDFTLNIHPVEEEDAATYFCQQGIKDPYTFGGGTKLEIK
notes: as for B1
For B6, in assay [1], the binding result is recorded as “no binding (tested: 100 nM)”. Moreover, in the assay with Human CD19-his protein, binding was characterised by a dissociation constant (Kd) of 0.543 nM, the dissociation rate constant (koff) was found to be 8.47e-05 s⁻¹ and the kon came to 156000 M⁻¹ s⁻¹.

B7: F3.40.14 (antibody, human IgG1, V domains shown)
VH: QAQLQQSGPELVKPGASVKISCKASGYAFSGSWMNWVQQRPGKGLEWIGRIYPGDGDTYYSGKFKDKAILTADTSSSTAYMQLSSLTSEDSAVYFCAQLRSRYVMDYWGQGASVTVSS
VL: DIVLTQSPASLAVSLGQRATISCRASESVSIHGTHLMHWYQQKPGQPPRLLIYAASNLESGVPARFSGSGSETDFTLNIHPVEEEDAATYFCQQGIDDPYTFGGGTKLEIK
notes: as for B1
In the case of B7, the binding result in assay [1] was “no binding (tested: 100 nM)”. In the assay with Human CD19-his protein, this molecule came in with a Kd of 1.7 nM, a koff of 0.000143 s⁻¹ and a kon of 84300 M⁻¹ s⁻¹.

B8: F3.3.10 (antibody, human IgG1, V domains shown)
VH: DVQLQESGPGLAKLSQSLSLTCSVTGYSITSGYYWNWIRQFPGNKLEWMGHISYDGNNNYNPSLKNRISITRDTSKNQFFLKLNSVTTEDTATYYCARENYSNYYFDYWGQGTTLTVSS
VL: DIVLTQSPASLAVSLGQRATISCRASQSVSKSSYTYIHWYQQKPGQPPKLLIKYASILQSGVPARFSGSGSGTDFTLNFHPVEEEDTATYYCQHSWEIPYTFGGGTKLEIK
notes: as for B1
With B8, in assay [1], the binding result was “no binding (tested: 100 nM)”. In the assay with Human CD19-his protein, this molecule returned a Kd of 8.47 nM, a koff of 0.000621 s⁻¹ and a kon of 73400 M⁻¹ s⁻¹.

B9: F3.83.9 (antibody, human IgG1, V domains shown)
VH: DVQLQESGPGLVKPSQSLSLTCSVTGYSITSGYYWNWIRQFPGNKLEWMGYISYDGGNNYNPSLKNRISITRDTSKNQFFLKLNSVTTEDTATYFCAREDYSNWYFDVWGTGTTVTVSS
VL: DIVLTQSPASLAVSLGQRATISCRASQSVSKSSYSYMHWYQQKPGQSPKLLIKYASILKSGVPARFSGSGSGTDFTLNIHPVEEEDTATYYCQHSWEIPWTFGGGTKLEIK
notes: as for B1
As for B9, the binding result in assay [1] was “no binding (tested: 100 nM)”. In the assay with Human CD19-his protein, this molecule gave a dissociation constant Kd of 3.67 nM, a dissociation rate constant (koff) of 0.000312 s⁻¹ and a kon of 85100 M⁻¹ s⁻¹.

B10: F1-mab003 (antibody, human IgG1, V domains shown)
VH: EVQLQQSGPELVKPGASVKMSCKASGYTFTDYVMHWVRQTPGQGLEWIGYFNPYNDGTNYNEKFKVKATLTSDKSSTTAYMELSSLTSEDSAVYYCARGVYYYGRDFDYWGQGTTLTVSS
VL: DVVLTQTPLSLPVSLGDQASISCRSSQSLENSNGNSYLNWYLQKPGQSPQLLIYRVSNRFSGVLDRFSGSGSGTDFTLKISRVEAEDLGVYFCLQITHVPWTFGGGTKLEIK
notes: as for B1
In the case of B10, the binding result in assay [1] is given as “no binding (tested: 100 nM)”. In the assay with Human CD19-his protein, this molecule registered a Kd of 0.247 nM, a dissociation rate constant (koff) of 0.000111 s⁻¹ and a kon of 450000 M⁻¹ s⁻¹.

B11: F4.96.6 (antibody, human IgG1, V domains shown)
VH: EIQLQQSGPELVKPGASVKVSCKASGYAFSAYNIYWVKQSHGKSLEWIGYIDPYNSGTTYNQKFRGKATLTVDKSSNTAYMHLSSLTSEDSAVYYCTRDGDAMDYWGQGTSVTVSS
VL: EILLTQSPAIIAASPGEKVTITCSASSGVIYMNWYQQKPGSSPKIWIYDVSTLASGVPARFSGSGSGTSFSFTINSMEAEDVATYYCQQRSSYPYTFGGGTKLEIK
notes: as for B1
Take B11: in assay [1], the binding result is “no binding (tested: 100 nM)”. Further, in the assay with Human CD19-his protein, the dissociation constant Kd is 3.71 nM, the koff amounted to 0.000918 s⁻¹ and the association rate constant (kon) came to 247000 M⁻¹ s⁻¹.

B12: F3.81.2 (antibody, human IgG1, V domains shown)
VH: QVQLQQPGAELVMPGASVKLSCKASAYTFTNYWMHWVKQRPGHGLEWIGEIDPSDSYTDYNQNFKAKATLTVDKSSSTAYMQLSSLTSEDSAVYYCARLMGRYFDVWGTGTTVTVSS
VL: DIVMTQSHKFMSTSVGDRVSITCKASQDVSAAVAWYQQKPGQSPKLLINSASYRYTGVPDRFTGSGSGTDFTFTISSVQAEDLAVYYCQQHYSTPLTFGAGTKLELR
notes: as for B1
Regarding B12, the binding result in assay [1] was “no binding (tested: 100 nM)”. In the assay with Human CD19-his protein, this molecule showed a Kd of 0.766 nM, a dissociation rate constant (koff) of 0.000104 s⁻¹ and an association rate constant (kon) of 135000 M⁻¹ s⁻¹.
